The text below walks through data of paper PMC4204861.

The assay addresses rEag1-Δeag (rat).

“rEag1 eag domain fragment (domain or fragment)”: the slow phase of inactivation of rEag1-Δeag (10- or 40-sec test pulses), two-electrode voltage clamp in Xenopus oocytes, co-expression (% reduction in current amplitude) was 60.
